Data: US20160280792A1 (Kyowa Kirin, published 2016)

Assays:
[1] = molecular target: T1, IL-3Rα/GM-CSFRα chimeric protein, A domain of IL-3Rα replaced by that of GM-CSFRα, on HEK293T cells (human, UniProt P15509 23-114); assay: flow cytometry, labelled antibody at 1 µg/ml, HEK293T cells expressing the construct
T1 construct: domain: A domain; The KpnI site (GGTACC) at the junction encodes an extra Gly-Thr; also called A domain substitution
T1 sequence: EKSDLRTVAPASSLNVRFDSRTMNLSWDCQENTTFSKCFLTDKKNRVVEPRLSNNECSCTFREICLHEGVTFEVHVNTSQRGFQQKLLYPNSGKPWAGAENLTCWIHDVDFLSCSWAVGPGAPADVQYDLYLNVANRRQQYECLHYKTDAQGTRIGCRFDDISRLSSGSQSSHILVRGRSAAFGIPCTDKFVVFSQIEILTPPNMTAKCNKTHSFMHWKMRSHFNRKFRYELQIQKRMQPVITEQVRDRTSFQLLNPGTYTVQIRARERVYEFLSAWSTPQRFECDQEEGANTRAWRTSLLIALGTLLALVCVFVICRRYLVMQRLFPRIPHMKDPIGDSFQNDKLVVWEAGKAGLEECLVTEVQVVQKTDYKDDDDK
Protocol: HEK293T cell (ATCC CRL 1268) was used for the preparation of the IL-3Rα/GM-CSFRα chimeric protein expression cell. Using 293Fectin (Invitrogen), the plasmid DNA obtained in the above was introduced as an expression vector into the HEK293T. The HEK293T to which the expression vector was introduced was cultured using a shaker under conditions of 5% CO₂ and 37° C. after 2 days of the introduction, the […] was used for in the flow cytometry analysis.
From 100,000 to 1,000,000 cells of the chimeric protein expression cell were allowed to react for 30 minutes on ice with at a concentration of 1 μg/ml with an AlexaFlour488-labeled human antibody or a commercially available FITC-labeled anti-IL-3Rα mouse antibody (7G3 or 9F5: both from BD Biosciences, 6H6: Acris Antibodies, AC145: Milteny Biotech, 107D2.08: Dendritics). A staining medium (Dulbecco's PBS supplemented with 2% fetal bovine serum, 2 mM EDTA and 0.05% NaN₃) was used for the dilution of antibodies and cells. Next, the cells reacted with antibodies were washed three times with the staining medium and whether the labeled antibody bound to the cell was confirmed by flow cytometry.

[2] = molecular target: T2, IL-3Rα/GM-CSFRα chimeric protein, region 1 (55-DADYSMP-61) of IL-3Rα replaced by GM-CSFRα sequence, on … (human, UniProt P26951 19-378); assay: as above
T2 construct: Built on IL-3RA-FLAG/pEGFP-N1; they are my translation of the primers; also called Region 1 (A)
T2 chain: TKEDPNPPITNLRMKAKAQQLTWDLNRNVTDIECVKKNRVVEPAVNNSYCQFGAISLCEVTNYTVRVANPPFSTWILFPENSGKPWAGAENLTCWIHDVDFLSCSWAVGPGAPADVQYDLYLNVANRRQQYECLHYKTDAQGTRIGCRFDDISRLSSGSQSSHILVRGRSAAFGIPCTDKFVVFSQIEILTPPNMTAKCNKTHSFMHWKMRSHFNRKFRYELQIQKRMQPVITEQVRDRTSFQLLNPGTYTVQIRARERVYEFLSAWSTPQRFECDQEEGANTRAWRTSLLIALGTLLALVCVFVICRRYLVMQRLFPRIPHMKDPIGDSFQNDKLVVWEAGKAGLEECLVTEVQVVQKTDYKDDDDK

[3] = molecular target: T3, soluble form of human IL-3Rα protein (extracellular region with C-terminal FLAG tag) (human, UniProt P26951 19-305); assay: SPR (Biacore 2000): antibody captured on anti-mouse antibody CM5 chip, soluble IL-3Rα as analyte, 1:1 Langmuir fit
T3 construct: Made in CHOras1 cells, purified on anti-FLAG gel; also called soluble form of IL-3Rα protein; soluble form of human IL-3Rα extracellular region
T3 sequence: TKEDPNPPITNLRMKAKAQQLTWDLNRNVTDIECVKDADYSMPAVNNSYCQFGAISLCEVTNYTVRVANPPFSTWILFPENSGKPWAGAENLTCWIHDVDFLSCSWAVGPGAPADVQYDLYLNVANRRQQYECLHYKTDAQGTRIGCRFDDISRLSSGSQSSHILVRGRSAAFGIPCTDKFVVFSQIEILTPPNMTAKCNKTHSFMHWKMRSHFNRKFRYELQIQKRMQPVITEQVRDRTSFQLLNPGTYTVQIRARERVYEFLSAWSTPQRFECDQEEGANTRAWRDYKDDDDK
Protocol: Specifically, CM5 (research grade) was used for a sensor tip (each GE). Firstly, the CM5 tip was activated by applying an equivalent mixture of 400 mM EDC (N-ethyl-N′-(3-dimethylaminopropyl)carbodiimidehydrochloride) and 100 mM NHS (N-hydroxysuccinimide) to the CM5 tip. Next, an antibody to the human antibody attached to the Human Antibody Capture Kit (GE) (hereinafter, referred to as anti-human antibody antibody) was diluted with the solution attached to the kit and applied thereto, thereby immobilizing the required amount of the anti-human antibody antibody to the CM5 tip. Regarding the mouse antibody to be used as a control, an antibody to the mouse antibody attached to the Mouse Antibody Capture Kit (GE) (hereinafter, referred to as anti-mouse antibody antibody) was diluted with the solution attached to the kit and applied thereto, thereby immobilizing a necessary amount thereof to the CM5 tip. […]
In the analysis, Biaevaluation software (GE) was used and Biaevaluation Software Handbook was referred. Specifically, by carrying out simultaneous analysis of kinetics analysis, employing basically the 1:1 Langmuir binding reaction model and fitting, association rate constant (Ka) and dissociation rate constant (Kd) were calculated, and the value of dissociation constant KD was calculated by the calculation of Kd/Ka.

binding result [1]: no binding (tested: 1 µg/ml) | binding result [2]: no binding (tested: 1 µg/ml) | Kd [3]: 0.566 nM
B1: anti-human IL-3Rα mouse antibody 7G3 (antibody, V domains shown)
VH: EVQLQQSGPELVKPGASVKMSCKASGYTFTDYYMKWVKQSHGKSLEWIGDIIPSNGATFYNQKFKGKATLTVDRSSSTAYMHLNSLTSEDSAVYYCTRSHLLRASWFAYWGQGTLVTVSA
VL: DFVMTQSPSSLTVTAGEKVTMSCKSSQSLLNSGNQKNYLTWYLQKPGQPPKLLIYWASTRESGVPDRFTGSGSGTDFTLTISSVQAEDLAVYYCQNDYSYPYTFGGGTKLEIK
notes: Mouse antibody; the material used in flow cytometry was bought (BD Biosciences, FITC-labelled); Light chain start see note of m7; also called 7G3 (Mouse antibodies); FITC-labeled 7G3 (BD Biosciences)
